The values below come from paper PMC5484534 (Molecular cell, 2017).

B1: PPIL2: human nuclear cyclophilin (protein, UniProt Q13356 1-520, looked up)
RING-type E3 …: MGKRQHQKDKMYITCAEYTHFYGGKKPDLPQTNFRRLPFDHCSLSLQPFVYPVCTPDGIVFDLLNIVPWLKKYGTNPSNGEKLDGRSLIKLNFSKNSEGKYHCPVLFTVFTNNTHIVAVRTTGNVYAYEAVEQLNIKAKNFRDLLTDEPFSRQDIITLQDPTNLDKFNVSNFYHVKNNMKIIDPDEEKAKQDPSYYLKNTNAETRETLQELYKEFKGDEILAATMKAPEKKKVDKLNAAHYSTGKVSASFTSTAMVPETTHEAAAIDEDVLRYQFVKKKGYVRLHTNKGDLNLELHCDLTPKTCENFIRLCKKHYYDGTIFHRSIRNFVIQGGDPTGTGTGGESYWGKPFKDEFRPNLSHTGRGILSMANSGPNSNRSQFFITFRSCAYLDKKHTIFGRVVGGFDVLTAMENVESDPKTDRPKEEIRIDATTVFVDPYEEADAQIAQERKTQLKVAPETKVKSSQPQAGSQGPQTFRQGVGKYINPAATKRAAEEEPSTSATVPMSKKKPSRGFGDFSSW
B2: CWC27: human nuclear cyclophilin (protein, UniProt Q6UX04 2-472, looked up)
Spliceosome-associated …: SNIYIQEPPTNGKVLLKTTAGDIDIELWSKEAPKACRNFIQLCLEAYYDNTIFHRVVPGFIVQGGDPTGTGSGGESIYGAPFKDEFHSRLRFNRRGLVAMANAGSHDNGSQFFFTLGRADELNNKHTIFGKVTGDTVYNMLRLSEVDIDDDERPHNPHKIKSCEVLFNPFDDIIPREIKRLKKEKPEEEVKKLKPKGTKNFSLLSFGEEAEEEEEEVNRVSQSMKGKSKSSHDLLKDDPHLSSVPVVESEKGDAPDLVDDGEDESAEHDEYIDGDEKNLMRERIAKKLKKDTSANVKSAGEGEVEKKSVSRSEELRKEARQLKRELLAAKQKKVENAAKQAEKRSEEEEAPPDGAVAEYRREKQKYEALRKQQSKKGTSREDQTLALLNQFKSKLTQAIAETPENDIPETEVEDDEGWMSHVLQFEDKSRKVKDASMQDSDTFEIYDPRNPVNKRRREESKKLMREKKERR
B3: PPIG: human nuclear cyclophilin (protein, UniProt Q13427 1-754, looked up)
Peptidyl-prolyl cis-trans …: MGIKVQRPRCFFDIAINNQPAGRVVFELFSDVCPKTCENFRCLCTGEKGTGKSTQKPLHYKSCLFHRVVKDFMVQGGDFSEGNGRGGESIYGGFFEDESFAVKHNKEFLLSMANRGKDTNGSQFFITTKPTPHLDGHHVVFGQVISGQEVVREIENQKTDAASKPFAEVRILSCGELIPKSKVKKEEKKRHKSSSSSSSSSSDSDSSSDSQSSSDSSDSESATEEKSKKRKKKHRKNSRKHKKEKKKRKKSKKSASSESEAENLEAQPQSTVRPEEIPPIPENRFLMRKSPPKADEKERKNRERERERECNPPNSQPASYQRRLLVTRSGRKIKGRGPRRYRTPSRSRSRDRFRRSETPPHWRQEMQRAQRMRVSSGERWIKGDKSELNEIKENQRSPVRVKERKITDHRNVSESPNRKNEKEKKVKDHKSNSKERDIRRNSEKDDKYKNKVKKRAKSKSRSKSKEKSKSKERDSKHNRNEEKRMRSRSKGRDHENVKEKEKQSDSKGKDQERSRSKEKSKQLESKSNEHDHSKSKEKDRRAQSRSRECDITKGKHSYNSRTRERSRSRDRSRRVRSRTHDRDRSRSKEYHRYREQEYRRRGRSRSRERRTPPGRSRSKDRRRRRRDSRSSEREESQSRNKDKYRNQESKSSHRKENSESEKRMYSKSRDHNSSNNSREKKADRDQSPFSKIKQSSQDNELKSSMLKNKEDEKIRSSVEKENQKSKGQENDHVHEKNKKFDHESSPGTDEDKSG
B4: PPWD: human nuclear cyclophilin (protein, UniProt Q96BP3 2-646, looked up)
Peptidylprolyl isomerase …: AAESGSDFQQRRRRRRDPEEPEKTELSERELAVAVAVSQENDEENEERWVGPLPVEATLAKKRKVLEFERVYLDNLPSASMYERSYMHRDVITHVVCTKTDFIITASHDGHVKFWKKIEEGIEFVKHFRSHLGVIESIAVSSEGALFCSVGDDKAMKVFDVVNFDMINMLKLGYFPGQCEWIYCPGDAISSVAASEKSTGKIFIYDGRGDNQPLHIFDKLHTSPLTQIRLNPVYKAVVSSDKSGMIEYWTGPPHEYKFPKNVNWEYKTDTDLYEFAKCKAYPTSVCFSPDGKKIATIGSDRKVRIFRFVTGKLMRVFDESLSMFTELQQMRQQLPDMEFGRRMAVERELEKVDAVRLINIVFDETGHFVLYGTMLGIKVINVETNRCVRILGKQENIRVMQLALFQGIAKKHRAATTIEMKASENPVLQNIQADPTIVCTSFKKNRFYMFTKREPEDTKSADSDRDVFNEKPSKEEVMAATQAEGPKRVSDSAIIHTSMGDIHTKLFPVECPKTVENFCVHSRNGYYNGHTFHRIIKGFMIQTGDPTGTGMGGESIWGGEFEDEFHSTLRHDRPYTLSMANAGSNTNGSQFFITVVPTPWLDNKHTVFGRVTKGMEVVQRISNVKVNPKTDKPYEDVSIINITVK
B5: PPIL3: human nuclear cyclophilin (protein, UniProt Q9H2H8 2-161, looked up)
Peptidyl-prolyl cis-trans …: SVTLHTDVGDIKIEVFCERTPKTCENFLALCASNYYNGCIFHRNIKGFMVQTGDPTGTGRGGNSIWGKKFEDEYSEYLKHNVRGVVSMANNGPNTNGSQFFITYGKQPHLDMKYTVFGKVIDGLETLDELEKLPVNEKTYRPLNDVHIKDITIHANPFAQ
modifications: His6-GST tag
B6: PPIL1: human nuclear cyclophilin (protein, UniProt Q9Y3C6 1-166, looked up)
Peptidyl-prolyl cis-trans …: MAAIPPDSWQPPNVYLETSMGIIVLELYWKHAPKTCKNFAELARRGYYNGTKFHRIIKDFMIQGGDPTGTGRGGASIYGKQFEDELHPDLKFTGAGILAMANAGPDTNGSQFFVTLAPTQWLDGKHTIFGRVCQGIGMVNRVGMVETNSQDRPVDDVKIIKAYPSG

Tested on in one data set: not given
Assay: not given
The conditions noted are these: ref Davis et al., 2010; cited from earlier work.
As for B1, the “activity on generic peptide substrates” value is “lack activity on generic peptide substrates”.

As for B2, the “activity on generic peptide substrates” value was “lack activity on generic peptide substrates”.

A further data set concerns BMAL1 TAD. As to the kind of experiment: Cyclophilin acceleration of TAD switch isomerization by 15N-1H ZZ-exchange NMR. The conditions noted are these: room temperature (22.68°C), 400 μM 15N BMAL1 TAD + 100 μM cyclophilin, 20 mM HEPES pH 7.0 (pH 7.5 for His6GST-PPIL3), 100 mM NaCl, 2 mM TCEP. It counts as biochemical, mouse.
Consider B3, for which the “activity on TAD switch isomerization, in words” value (“activity … in words” below) is recorded as “significantly increased the rate of isomerization in BMAL1”.

With B4, the “activity … in words” value is recorded as “either not active on the TAD or had activity that was below the detection limit”.

For B1, the “activity … in words” value was “either not active on the TAD or had activity that was below the detection limit”.

For B5, the “activity … in words” value is “significantly increased the rate of isomerization in BMAL1”.

For B2, the “activity … in words” value was “either not active on the TAD or had activity that was below the detection limit”.

Consider B6, for which the “activity … in words” value is “significantly increased the rate of isomerization in BMAL1”.
